Here are results for five molecules from patent EP4782541A1 (Nanjing Probio Biotech Co., Ltd., dated 2026).

Experiment [1] addresses human ROR1 (on CHO-K1/ROR1 cells and ROR1 tumour cell lines) (human) (UniProt Q01973). Description: cell-based or functional assay.
Experiment [2] concerns the target T1, human ROR1 protein (human, UniProt Q01973 30-403, limits assumed).
T1 construct: Recombinant antigen of the SPR assay; also called ROR1 (SPR ligand)
The experiment is described as follows: SPR (Biacore 8K); human ROR1 amine-coupled at 0.05 ug/mL as ligand, antibody as analyte.

Experiment [3] concerns the target T1, human ROR1 protein. The experiment is described as follows: SPR (Biacore 8K); human ROR1 amine-coupled at 0.10 ug/mL as ligand, antibody as analyte.
In experiment [4] the target is T1, human ROR1 protein. The experiment is described as follows: SPR (Biacore 8K); human ROR1 amine-coupled at 0.50 ug/mL as ligand, antibody as analyte.
Experiment [5] deals with T1, human ROR1 protein. The experiment is described as follows: SPR (Biacore 8K); human ROR1 amine-coupled at 2.50 ug/mL as ligand, antibody as analyte.
The target in experiment [6] is T1, human ROR1 protein. The experiment is described as follows: SPR (Biacore 8K); human ROR1 amine-coupled at 12.50 ug/mL as ligand, antibody as analyte.
The target in experiment [7] is T1, human ROR1 protein. The experiment is described as follows: SPR (Biacore 8K); human ROR1 amine-coupled at 62.50 ug/mL as ligand, antibody as analyte.
Experiment [8] addresses T2, human CD3 (on Jurkat cells) (human, UniProt P07766 23-207; P09693 23-182; P04234 22-171).
T2 construct: whole, on cells
Description: flow cytometry on Jurkat cells expressing human CD3.

The target of experiment [9] is T3, human ROR1 (on CHO-K1/ROR1 cells and ROR1 tumour cell lines) (human, UniProt Q01973 30-937).
T3 construct: whole, on cells; also called receptor tyrosine kinase-like orphan receptor 1
Description: flow cytometry on CHO-K1/ROR1 cells overexpressing human ROR1.

T3 sequence (Q01973 30-937): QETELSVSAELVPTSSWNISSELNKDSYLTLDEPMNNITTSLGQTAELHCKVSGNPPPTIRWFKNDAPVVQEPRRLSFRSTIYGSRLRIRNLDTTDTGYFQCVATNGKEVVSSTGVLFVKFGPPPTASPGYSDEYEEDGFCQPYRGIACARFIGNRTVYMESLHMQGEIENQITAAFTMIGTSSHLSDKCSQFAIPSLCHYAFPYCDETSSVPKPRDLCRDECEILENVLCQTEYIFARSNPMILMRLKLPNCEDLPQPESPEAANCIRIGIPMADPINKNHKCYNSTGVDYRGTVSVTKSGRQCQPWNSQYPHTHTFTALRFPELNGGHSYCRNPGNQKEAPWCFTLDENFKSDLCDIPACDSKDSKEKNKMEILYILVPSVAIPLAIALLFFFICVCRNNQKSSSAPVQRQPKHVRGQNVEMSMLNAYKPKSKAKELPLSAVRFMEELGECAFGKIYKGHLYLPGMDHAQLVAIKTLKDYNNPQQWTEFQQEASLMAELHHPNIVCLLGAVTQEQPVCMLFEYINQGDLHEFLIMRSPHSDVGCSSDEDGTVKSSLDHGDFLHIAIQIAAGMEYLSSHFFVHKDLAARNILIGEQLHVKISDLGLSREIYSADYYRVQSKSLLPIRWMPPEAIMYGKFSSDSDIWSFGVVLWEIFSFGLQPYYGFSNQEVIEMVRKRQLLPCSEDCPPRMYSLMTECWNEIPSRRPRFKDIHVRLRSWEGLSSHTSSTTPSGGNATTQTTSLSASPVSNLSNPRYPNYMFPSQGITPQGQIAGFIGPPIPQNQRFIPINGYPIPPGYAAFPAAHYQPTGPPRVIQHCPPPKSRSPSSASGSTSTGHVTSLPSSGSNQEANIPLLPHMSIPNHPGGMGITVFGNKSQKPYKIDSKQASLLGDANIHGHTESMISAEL
human ROR1 (on CHO-K1/ROR1 cells and ROR1 tumour cell lines) (human), sequence (Q01973 30-937): as above
T1 sequence (Q01973 30-403 limits assumed): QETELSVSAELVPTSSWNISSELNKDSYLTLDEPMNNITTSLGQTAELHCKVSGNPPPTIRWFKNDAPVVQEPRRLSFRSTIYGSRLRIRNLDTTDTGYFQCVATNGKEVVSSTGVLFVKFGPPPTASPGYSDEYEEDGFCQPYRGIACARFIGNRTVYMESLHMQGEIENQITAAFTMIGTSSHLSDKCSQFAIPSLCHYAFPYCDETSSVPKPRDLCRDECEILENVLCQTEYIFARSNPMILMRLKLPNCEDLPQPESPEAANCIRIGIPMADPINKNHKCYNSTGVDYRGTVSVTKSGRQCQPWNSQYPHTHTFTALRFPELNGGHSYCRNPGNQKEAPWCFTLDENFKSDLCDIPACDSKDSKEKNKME
T2 sequence (P07766 23-207, chain 1 of 3): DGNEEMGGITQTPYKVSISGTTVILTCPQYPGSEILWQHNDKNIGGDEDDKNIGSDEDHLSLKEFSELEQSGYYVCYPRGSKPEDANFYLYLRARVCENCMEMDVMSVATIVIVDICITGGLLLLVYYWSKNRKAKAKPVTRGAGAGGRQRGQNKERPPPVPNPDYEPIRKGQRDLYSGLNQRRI
T2 sequence (P09693 23-182, chain 2 of 3): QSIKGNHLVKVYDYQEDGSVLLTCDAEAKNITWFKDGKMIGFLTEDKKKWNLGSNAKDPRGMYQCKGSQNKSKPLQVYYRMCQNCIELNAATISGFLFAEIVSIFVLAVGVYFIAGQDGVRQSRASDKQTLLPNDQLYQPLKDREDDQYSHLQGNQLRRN
T2 sequence (P04234 22-171, chain 3 of 3): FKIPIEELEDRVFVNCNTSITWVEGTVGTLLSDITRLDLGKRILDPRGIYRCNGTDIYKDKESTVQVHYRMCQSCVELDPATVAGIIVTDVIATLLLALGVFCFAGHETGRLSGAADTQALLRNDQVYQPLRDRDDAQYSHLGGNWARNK

NVG-111 (bispecific antibody) gave an EC50 of T cell activation based on reporter gene (luciferase), target cells A375 in experiment [1] of 0.0329 nM. Moreover, the EC50 of T cell activation based on reporter gene (luciferase), target cells Jeko-1 in experiment [1] turned out to be 0.0358 nM. This molecule also showed an EC50 of T cell activation based on reporter gene (luciferase), target cells MDA-MB-231 in [1] of 0.01 nM. For the same molecule, the Kd was determined as 2.59 nM with human ROR1 protein [2]; 1.82 nM in the experiment with human ROR1 protein [3]; 1.92 nM with human ROR1 protein [4]; 1.64 nM with human ROR1 protein [5]; 1.49 nM with human ROR1 protein [6]; 1.71 nM with human ROR1 protein [7]. For the same molecule, the koff with human ROR1 protein [2] came to 0.00138 s⁻¹; with human ROR1 protein [3], 0.00113 s⁻¹; with human ROR1 protein [4], 0.00122 s⁻¹; with human ROR1 protein [5] it was 0.00118 s⁻¹; in the experiment with human ROR1 protein [6], 0.00109 s⁻¹; with human ROR1 protein [7] it was 0.00101 s⁻¹. For the same molecule, the kon amounted to 532000 M⁻¹ s⁻¹ with human ROR1 protein [2]; 622000 M⁻¹ s⁻¹ in the experiment with human ROR1 protein [3]; 632000 M⁻¹ s⁻¹ with human ROR1 protein [4]; 723000 M⁻¹ s⁻¹ with human ROR1 protein [5]; 733000 M⁻¹ s⁻¹ in the experiment with human ROR1 protein [6]; 593000 M⁻¹ s⁻¹ with human ROR1 protein [7].

B1: BsAb-1 (bispecific antibody, human IgG1, lambda)
chain: EVQLVESGGGLVQPGGSLRLSCAASGFISRFYAMGWYRQAPGKQRELVARISSMGWTYYADSVKGRFTISIDNSKNTLYLQMNSLRAEDTAVYYCNARNLWGQGTLVTVSSDKTHTCPPCPAPESTRGPSVFLFPPKPKDTLMISRTPEVTCVVVDVSHEDPEVKFNWYVDGVEVHNAKTKPREEQYNSTYRVVSVLTVLHQDWLNGKEYKCKVSNKALPAPIEKTISKAKGQPREPQVCTLPPSRDELTKNQVSLSCAVKGFYPSDIAVEWESNGQPENNYKTTPPVLDSDGSFFLVSKLTVDKSRWQQGNVFSCSVMHEALHNHYTQKSLSLSPGK
heavy: EVQLVESGGGLVQPGRSLRLSCAASGFTFNTYAMNWVRQAPGKGLEWVARIRSKYNNYATYYADSVKDRFTISRDDSKSIAYLQMNSLKTEDTAVYYCVRHGNFGNSYVSWFAYWGQGTLVTVSSASTKGPSVFPLAPSSKSTSGGTAALGCLVKDYFPEPVTVSWNSGALTSGVHTFPAVLQSSGLYSLSSVVTVPSSSLGTQTYICNVNHKPSNTKVDKKVEPKSCDKTHTCPPCPAPESTRGPSVFLFPPKPKDTLMISRTPEVTCVVVDVSHEDPEVKFNWYVDGVEVHNAKTKPREEQYNSTYRVVSVLTVLHQDWLNGKEYKCKVSNKALPAPIEKTISKAKGQPREPQVYTLPPCRDELTKNQVSLWCLVKGFYPSDIAVEWESNGQPENNYKTTPPVLDSDGSFFLYSKLTVDKSRWQQGNVFSCSVMHEALHNHYTQKSLSLSPGK
light: QTVVTQEPSLTVSPGGTVTLTCRSSTGAVTTSNYANWVQQKPGQAPRGLIGGTNKRAPGVPARFSGSLLGGKAALTLSGVQPEDEAEYFCALWYSNLWVFGGGTKLTVLGQPKAAPSVTLFPPSSEELQANKATLVCLISDFYPGAVTVAWKADSSPVKAGVETTTPSKQSNNKYAASSYLSLTPEQWKSHRSYSCQVTHEGSTVEKTVAPTECS
notes: human IgG1 Fc with L234S/L235T/G236R; also called BsAb-01
Turning to B1, the results for the EC50 in experiment [8] and in [9] were 0.384 nM and 0.287 nM, respectively.

B2: BsAb-5 (bispecific antibody, human IgG1, lambda)
chain: EVQLVESGGGLVQPGGSLRLSCAASGFISRFYAMGWYRQAPGKQRELVARISSMGWTYYADSVKGRFTISIDNSKNTLYLQMNSLRAEDTAVYYCNARNLWGQGTLVTVSSGGGGSGGGGSGGGGSEVQLVESGGGLVQPGGSLRLSCAASGFISRFYAMGWYRQAPGKQRELVARISSMGWTYYADSVKGRFTISIDNSKNTLYLQMNSLRAEDTAVYYCNARNLWGQGTLVTVSSDKTHTCPPCPAPESTRGPSVFLFPPKPKDTLMISRTPEVTCVVVDVSHEDPEVKFNWYVDGVEVHNAKTKPREEQYNSTYRVVSVLTVLHQDWLNGKEYKCKVSNKALPAPIEKTISKAKGQPREPQVCTLPPSRDELTKNQVSLSCAVKGFYPSDIAVEWESNGQPENNYKTTPPVLDSDGSFFLVSKLTVDKSRWQQGNVFSCSVMHEALHNHYTQKSLSLSPGK
heavy: B1 heavy
light: B1 light
notes: also called BsAb-05
As for B2, the results for the 50% effective concentration (EC50) in experiment [8] and in experiment [9] were 0.913 nM and 0.109 nM, respectively.

B3: BsAb-8 (bispecific antibody, human IgG1, lambda)
chain: EVQLVESGGGLVQPGGSLRLSCAASGRSFSSFQMGWFRQAPGKEREFVAASGWSGGPTYYWDSVIGRFTISTDNSKNTLYLQMNSLRAEDTAVYYCYEDRVLSGRPVRYWGQGTLVTVSSGGGGSGGGGSGGGGSEVQLVESGGGLVQPGGSLRLSCAASGRSFSSFQMGWFRQAPGKEREFVAASGWSGGPTYYWDSVIGRFTISTDNSKNTLYLQMNSLRAEDTAVYYCYEDRVLSGRPVRYWGQGTLVTVSSDKTHTCPPCPAPESTRGPSVFLFPPKPKDTLMISRTPEVTCVVVDVSHEDPEVKFNWYVDGVEVHNAKTKPREEQYNSTYRVVSVLTVLHQDWLNGKEYKCKVSNKALPAPIEKTISKAKGQPREPQVCTLPPSRDELTKNQVSLSCAVKGFYPSDIAVEWESNGQPENNYKTTPPVLDSDGSFFLVSKLTVDKSRWQQGNVFSCSVMHEALHNHYTQKSLSLSPGK
heavy: B1 heavy
light: B1 light
notes: also called BsAb-08
With B3, the EC50 in experiment [8] is 0.838 nM; in experiment [9], 0.28 nM.

B4: BsAb-4 (bispecific antibody, human IgG1, lambda)
chain: EVQLVESGGGLVQPGGSLRLSCAASGRSFSSFQMGWFRQAPGKEREFVAASGWSGGPTYYWDSVIGRFTISTDNSKNTLYLQMNSLRAEDTAVYYCYEDRVLSGRPVRYWGQGTLVTVSSDKTHTCPPCPAPESTRGPSVFLFPPKPKDTLMISRTPEVTCVVVDVSHEDPEVKFNWYVDGVEVHNAKTKPREEQYNSTYRVVSVLTVLHQDWLNGKEYKCKVSNKALPAPIEKTISKAKGQPREPQVCTLPPSRDELTKNQVSLSCAVKGFYPSDIAVEWESNGQPENNYKTTPPVLDSDGSFFLVSKLTVDKSRWQQGNVFSCSVMHEALHNHYTQKSLSLSPGK
heavy: B1 heavy
light: B1 light
notes: also called BsAb-04
In the case of B4, the EC50 in experiment [8] turned out to be 0.629 nM; in [9], 0.373 nM.
